% activity data for 3 substances are collected here from patent US20150064134A1.

Among the targets are LIMK1(h) (human) (UniProt P53667); GSK3α(h) (human) (UniProt P49840); ErbB4(h) (human) (UniProt Q15303); Met(D1246N)(h) (human) (UniProt P08581); MAPKAP-K2(h) (human) (UniProt P49137); PRAK(h) (human) (UniProt Q8IW41); Hck(h) (human) (UniProt P08631); Fyn(h) (human) (UniProt P06241); Abl(Y253F)(h) (human) (UniProt P00519).
What all share (test): cell-based or functional assay
The next experiment deals with T1, SAPK4(h) (human) (UniProt O15264).
T1 sequence (looked up): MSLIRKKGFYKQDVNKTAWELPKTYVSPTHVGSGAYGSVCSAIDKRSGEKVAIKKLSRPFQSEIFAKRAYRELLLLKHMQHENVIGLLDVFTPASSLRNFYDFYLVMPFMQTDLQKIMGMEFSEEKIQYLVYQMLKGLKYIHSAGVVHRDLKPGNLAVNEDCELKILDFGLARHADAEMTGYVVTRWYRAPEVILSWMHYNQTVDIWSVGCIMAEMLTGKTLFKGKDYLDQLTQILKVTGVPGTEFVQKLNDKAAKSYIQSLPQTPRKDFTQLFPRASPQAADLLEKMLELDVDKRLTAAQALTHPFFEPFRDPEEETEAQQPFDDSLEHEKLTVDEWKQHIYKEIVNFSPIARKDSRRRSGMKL

The target in the next experiment is T2, Itk(h) (human) (UniProt Q08881).
T2 sequence (looked up): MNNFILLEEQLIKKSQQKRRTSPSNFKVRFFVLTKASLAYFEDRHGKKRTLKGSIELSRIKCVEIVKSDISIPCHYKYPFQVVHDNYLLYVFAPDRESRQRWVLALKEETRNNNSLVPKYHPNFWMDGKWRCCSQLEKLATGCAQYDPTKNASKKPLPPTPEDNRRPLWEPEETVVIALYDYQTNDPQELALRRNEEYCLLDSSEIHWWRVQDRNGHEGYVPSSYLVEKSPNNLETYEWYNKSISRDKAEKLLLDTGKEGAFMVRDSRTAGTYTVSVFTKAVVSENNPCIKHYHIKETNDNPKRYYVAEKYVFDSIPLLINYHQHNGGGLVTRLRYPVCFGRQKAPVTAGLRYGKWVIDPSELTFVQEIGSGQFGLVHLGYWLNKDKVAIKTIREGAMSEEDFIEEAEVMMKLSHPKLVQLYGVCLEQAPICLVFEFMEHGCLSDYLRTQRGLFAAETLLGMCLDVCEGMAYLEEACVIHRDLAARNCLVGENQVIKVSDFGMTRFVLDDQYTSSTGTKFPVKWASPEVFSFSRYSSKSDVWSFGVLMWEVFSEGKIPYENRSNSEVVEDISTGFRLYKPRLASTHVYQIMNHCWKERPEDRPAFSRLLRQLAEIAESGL

The target of the next experiment is T3, Ret(V804M)(h) (human) (UniProt P07949).
T3 sequence (looked up): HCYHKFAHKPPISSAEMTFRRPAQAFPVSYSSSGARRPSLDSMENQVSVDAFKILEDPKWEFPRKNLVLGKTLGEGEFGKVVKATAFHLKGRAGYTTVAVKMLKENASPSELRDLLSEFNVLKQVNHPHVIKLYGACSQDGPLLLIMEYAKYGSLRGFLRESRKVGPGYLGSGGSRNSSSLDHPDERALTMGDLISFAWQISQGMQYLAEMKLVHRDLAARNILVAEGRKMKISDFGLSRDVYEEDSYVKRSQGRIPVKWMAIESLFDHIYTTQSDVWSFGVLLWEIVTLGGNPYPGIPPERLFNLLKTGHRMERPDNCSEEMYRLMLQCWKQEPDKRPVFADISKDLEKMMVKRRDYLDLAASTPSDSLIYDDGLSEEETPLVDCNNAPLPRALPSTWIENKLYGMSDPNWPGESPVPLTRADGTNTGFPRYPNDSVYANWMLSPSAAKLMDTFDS

The target in experiment [1] is IGF-1R(h), activated (human) (UniProt P08069).
In another experiment the target is T4, PrKX(h) (human) (UniProt P51817).
T4 sequence (looked up): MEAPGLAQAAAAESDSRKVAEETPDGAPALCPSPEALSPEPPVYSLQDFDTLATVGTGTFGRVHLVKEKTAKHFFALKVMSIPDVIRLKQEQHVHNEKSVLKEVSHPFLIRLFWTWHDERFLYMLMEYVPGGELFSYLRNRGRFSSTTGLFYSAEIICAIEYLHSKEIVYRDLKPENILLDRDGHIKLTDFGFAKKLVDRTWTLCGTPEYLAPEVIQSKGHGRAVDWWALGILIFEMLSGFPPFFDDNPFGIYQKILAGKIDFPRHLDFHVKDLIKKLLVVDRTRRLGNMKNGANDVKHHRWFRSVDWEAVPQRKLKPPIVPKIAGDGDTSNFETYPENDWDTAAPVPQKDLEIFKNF

Sequence of PRAK(h) (human) (Q8IW41 whole entry): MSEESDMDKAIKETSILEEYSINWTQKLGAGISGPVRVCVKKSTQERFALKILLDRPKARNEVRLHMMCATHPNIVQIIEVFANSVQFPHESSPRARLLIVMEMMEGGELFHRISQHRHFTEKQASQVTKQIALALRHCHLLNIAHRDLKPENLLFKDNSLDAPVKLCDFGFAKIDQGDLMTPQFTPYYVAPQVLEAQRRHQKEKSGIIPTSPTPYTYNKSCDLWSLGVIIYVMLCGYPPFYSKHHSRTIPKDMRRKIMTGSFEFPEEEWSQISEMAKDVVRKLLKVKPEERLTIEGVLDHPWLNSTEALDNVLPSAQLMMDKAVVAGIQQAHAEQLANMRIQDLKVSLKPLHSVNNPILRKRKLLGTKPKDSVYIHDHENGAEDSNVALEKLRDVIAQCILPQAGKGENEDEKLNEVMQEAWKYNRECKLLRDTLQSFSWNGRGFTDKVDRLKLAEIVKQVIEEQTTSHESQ
Sequence of Abl(Y253F)(h) (human) (P00519 27-1130 Y253F limits assumed): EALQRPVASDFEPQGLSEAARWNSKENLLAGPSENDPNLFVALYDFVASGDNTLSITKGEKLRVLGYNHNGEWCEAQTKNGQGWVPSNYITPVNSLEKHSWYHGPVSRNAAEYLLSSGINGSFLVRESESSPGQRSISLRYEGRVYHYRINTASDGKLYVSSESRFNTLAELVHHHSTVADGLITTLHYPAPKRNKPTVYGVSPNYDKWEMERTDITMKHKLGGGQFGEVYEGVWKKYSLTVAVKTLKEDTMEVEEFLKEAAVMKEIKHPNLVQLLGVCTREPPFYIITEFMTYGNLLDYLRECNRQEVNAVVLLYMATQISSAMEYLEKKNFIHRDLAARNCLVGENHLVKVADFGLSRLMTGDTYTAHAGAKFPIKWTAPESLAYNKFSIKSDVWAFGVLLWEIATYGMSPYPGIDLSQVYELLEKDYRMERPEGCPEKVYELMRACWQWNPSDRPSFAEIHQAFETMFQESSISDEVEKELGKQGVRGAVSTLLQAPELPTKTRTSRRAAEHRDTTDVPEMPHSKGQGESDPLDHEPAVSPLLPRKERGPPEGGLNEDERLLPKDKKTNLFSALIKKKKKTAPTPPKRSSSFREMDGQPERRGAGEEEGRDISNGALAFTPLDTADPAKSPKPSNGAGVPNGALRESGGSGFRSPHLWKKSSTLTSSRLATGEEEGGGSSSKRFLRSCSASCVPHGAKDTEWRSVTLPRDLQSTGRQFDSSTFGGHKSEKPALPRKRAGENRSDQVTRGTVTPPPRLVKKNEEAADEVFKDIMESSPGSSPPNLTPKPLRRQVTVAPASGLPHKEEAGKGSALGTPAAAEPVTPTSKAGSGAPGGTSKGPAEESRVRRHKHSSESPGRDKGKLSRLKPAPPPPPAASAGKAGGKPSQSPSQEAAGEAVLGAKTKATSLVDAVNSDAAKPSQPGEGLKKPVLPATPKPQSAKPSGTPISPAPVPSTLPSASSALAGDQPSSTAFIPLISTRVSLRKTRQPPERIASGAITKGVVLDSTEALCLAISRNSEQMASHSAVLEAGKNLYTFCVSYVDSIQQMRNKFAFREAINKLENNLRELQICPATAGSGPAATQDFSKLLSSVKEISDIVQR
Sequence of ErbB4(h) (human) (Q15303 706-991 limits assumed): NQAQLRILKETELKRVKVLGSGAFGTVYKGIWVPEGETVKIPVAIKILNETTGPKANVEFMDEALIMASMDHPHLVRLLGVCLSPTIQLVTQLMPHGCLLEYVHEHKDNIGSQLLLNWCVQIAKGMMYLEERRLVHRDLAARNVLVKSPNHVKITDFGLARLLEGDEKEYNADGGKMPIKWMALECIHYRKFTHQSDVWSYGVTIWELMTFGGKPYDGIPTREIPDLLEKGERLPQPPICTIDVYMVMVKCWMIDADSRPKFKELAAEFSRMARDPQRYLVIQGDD
Sequence of IGF-1R(h), activated (human) (P08069 959-1367 limits assumed): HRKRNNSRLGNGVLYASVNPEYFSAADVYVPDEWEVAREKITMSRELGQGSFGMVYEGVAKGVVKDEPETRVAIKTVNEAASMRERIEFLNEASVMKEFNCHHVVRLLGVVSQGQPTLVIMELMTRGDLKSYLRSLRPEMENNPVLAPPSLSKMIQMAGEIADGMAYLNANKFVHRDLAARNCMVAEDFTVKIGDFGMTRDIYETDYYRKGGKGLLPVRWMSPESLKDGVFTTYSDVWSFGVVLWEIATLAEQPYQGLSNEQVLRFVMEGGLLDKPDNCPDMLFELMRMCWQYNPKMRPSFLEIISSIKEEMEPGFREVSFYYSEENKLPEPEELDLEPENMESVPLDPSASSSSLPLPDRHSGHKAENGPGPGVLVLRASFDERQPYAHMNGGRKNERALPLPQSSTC

Turning to MMI-0500 (peptide), the % activity at 100 µM is 87% with LIMK1(h) (human); 175% with GSK3α(h) (human); 48% with SAPK4(h) (human); 7% in the experiment with Itk(h) (human); 36% with Ret(V804M)(h) (human); 2% in the experiment with ErbB4(h) (human). For the same substance, the % activity at 100 µM in the experiment with Met(D1246N)(h) (human) came to 90%; in experiment [1], 45%; with MAPKAP-K2(h) (human), 9%; with PRAK(h) (human) it was 95%; with Hck(h) (human), 78%; in the experiment with PrKX(h) (human), 57%. Further, the values for the % activity at 100 µM in the experiment with Fyn(h) (human) and with Abl(Y253F)(h) (human) were 83% and 29%, respectively.
Regarding MMI-0300 (peptide), the % activity at 100 µM is 88% in the experiment with LIMK1(h) (human); 157% in the experiment with GSK3α(h) (human); 96% with SAPK4(h) (human); 77% with Itk(h) (human); 95% in the experiment with Ret(V804M)(h) (human); 40% in the experiment with ErbB4(h) (human). Further, the % activity at 100 µM in the experiment with Met(D1246N)(h) (human) amounted to 82%; in experiment [1], 80%; with MAPKAP-K2(h) (human), 5%; with PRAK(h) (human) it was 128%; with Hck(h) (human) it was 72%; with PrKX(h) (human) it was 61%. In addition, the % activity at 100 µM with Fyn(h) (human) was found to be 74%; with Abl(Y253F)(h) (human), 86%.
MMI-0400 (peptide): the % activity at 100 µM with LIMK1(h) (human) amounted to 92%; with GSK3α(h) (human), 164%; with SAPK4(h) (human), 91%; in the experiment with Itk(h) (human), 63%; with Ret(V804M)(h) (human), 87%; with ErbB4(h) (human), 0%. Also, the % activity at 100 µM in the experiment with Met(D1246N)(h) (human) came out at 31%; in [1], 77%; with MAPKAP-K2(h) (human), 5%; with PRAK(h) (human), 118%; with Hck(h) (human), 72%; in the experiment with PrKX(h) (human), 76%. Besides, the % activity at 100 µM with Fyn(h) (human) turned out to be 54%; with Abl(Y253F)(h) (human), 78%.
